Substrate in this data set: C/C=C/C(=O)SCCNC(=O)CCNC(=O)[C@H](O)C(C)(C)COP(=O)(O)OP(=O)(O)OC[C@H]1O[C@@H](n2cnc3c(N)ncnc32)[C@H](O)[C@@H]1OP(=O)(O)O
Put plainly: Kinetic assay of dehydratase activity: hydration of crotonyl-CoA monitored at 235 nm, fit to Michaelis-Menten equation. In kind it is biochemical, Photobacterium profundum. Conditions: other: crotonyl-CoA, hydration reaction, substrate 0-600 μM, 25 mM Tris, 150 mM NaCl, 10% glycerol, pH 8.0. How it is done: For the cloning of fragments into pET200TOPO SEQ.ID15, the amplified DNA was gel purified using a Gel Extraction Kit and incubated with pET200TOPO. The resulting clones were selected in LB-agar containing kanamycin (100 μg/mL). All resistant clones were introduced into E. coli strain SEQ.ID16 BL21-DE3-Codon Plus-RIL and grown in liquid LB at 37° C. until the OD600=0.4 at which time the temperature was decreased to 22° C.° until the OD600=0.6 at which time protein expression was induced with 1 mM IPTG. […]
Dehydratase activity was measured in a hydration assay by using Crotonyl-CoA and Crotonyl-NAC as substrates. […] The values for the absorbance slope (given in mAU/min) were converted to units of μmole of product per minute by using the following equation: μmole of product/min=[Slope/ε×b]×Voltotal (Eq1)
in which the slope is given by the instrument in units of milliabsorbance (mAU) per minute, b is the path length measured to be 0.89 cm for a Voltotal=200 μl in our 96-well plates. The ε is the molar extinction coefficient resulting from the loss of a double bond as defined by the difference in absorbance between crotonyl-CoA and β-hydroxybutyryl-CoA at a particular wavelength. The extinction coefficient was calculated to be ε=969.9 M^−1 cm^−1 for the reaction monitored at 260 nm and ε=790.7 M^−1 cm^−1 for the reaction monitored at 235 nm. […]

B1: DH1-DH2-UMA (His-tagged dehydratase tetradomain fragment, I1096-N-Term, of pfaC PUFA synthase from Photobacterium profundum; pfaC SEQ.ID17, GenBank AF409100.1; … (protein)
chain: IRKPCIWDYEDLVEYAEGDIANVFGPDYAVIDNYSRRVRLPTTDYLLVSRVTKLDATMLEYKPSTMTTEYDIPVDAPYLVDGQIPWAVAVESGQCDLMLISYLGIDFENKGERVYRLLDCTLTFLGDLPRGGDTLRYDISINNFARNGDTLLFFFSYECFVGDKMVLKMDNGCAGFFTDEELSDGKGVIRTEDEIKSRNLAVKQRFNPLLHCQKTQFDYQTLHNLLDANIAGCFGESHISDRHQPSLCFSSDKFMMIEQISHVDPQGGTWGLGLIEGHKQLEADHWYFPCHFKDDSVMAGSLMAEGCGQLLQFFMMYLGMHTQVENGRFQPLENAPQQVRCRGQVLPQSAVLTYRMEVTEIGLSPRPYAKANIDILLDGKVVVDFQNLGVMIKEESECTRYLGSSDFDSASLASSSYVAESAPAQADVITPVEAPISQQASANAPLMAQIPDLNTAPNKGVIPLQHIEAPIVPDYQNRTPDTVPFTPYHMFEFATGDIEKCFGPDFSIYRGMIPPRTPCGDLQLTTRVIEVNGTRGDFKTPSSCIAEYEVPENAWYFDENSHSSLMPYSVLMEISLQPNGFISGYMGTTLGFPGLELFFRNLDGSGKMLRNVDLRGKTIVNDSRLLSTVMMGTNIVQSFSFELSTDGVPFYEGTAVFGYFKGAALKDQLGLDNGQVTYPWHVNNNRTPDVSINLLDKESRYFNAPLSATGEAQPHYQLAGGRLNFIDKVDITSDGGKAGLGYLYAERTIDPSDWFFQFHFHQDPVMPGSLGVEAIIELMQTYALNKDLGAGFRSPKFGQIQSEVKWKYRGQINPLNKQMSLDVHITAIKDEDGKRIIVGDANLSKDGLRIYEVKDIAICIEEA
For B1, the Km turned out to be 156 µM and the Vmax was found to be 0.0001 μmol product/min.

As a reminder, the Km is the concentration of substrate that gives half-maximal velocity.

Values taken from US10385327B2, “Enhanced E. coli for the production of fatty acids and method of producing the same” (University of Puerto Rico, priority 2012, dated 2019).
